Results from paper PMC3439924 (Nucleic Acids Research, 2012).
Positions count from the first letter of the chain named. Names and notes keep the numbering of the source. Like-named read-outs stand apart in the source and are kept apart here.

Legend:
RNase T [1] = molecular target: T1, RNase T (Escherichia coli, UniProt P30014 1-215); assay: X-ray crystallography
T1 sequence: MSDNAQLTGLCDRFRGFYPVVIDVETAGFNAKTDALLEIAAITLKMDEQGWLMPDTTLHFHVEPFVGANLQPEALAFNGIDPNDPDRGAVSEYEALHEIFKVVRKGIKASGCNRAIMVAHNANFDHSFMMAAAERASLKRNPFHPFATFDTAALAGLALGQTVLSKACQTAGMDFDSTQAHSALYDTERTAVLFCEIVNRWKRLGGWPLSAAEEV

RNase T E92G [2] = molecular target: T2, RNase T E92G (Escherichia coli, UniProt P30014 1-215, E92G); assay: X-ray crystallography
T2 sequence: T1 sequence with E92G

RNase T [3] = molecular target: T1, RNase T; assay: X-ray crystallography; remark: listed apart in the source
RNase T E92G [4] = molecular target: T2, RNase T E92G; assay: X-ray crystallography; remark: listed apart in the source
crystal structure = molecular target: the molecule itself; assay: crystal structure

B1: ssDNA 3'-end AAC (ssDNA)
DNA: TTACAAC
**Q.** Does B1 bind (RNase T [1])?
**A.** Result: binds

B2: ssDNA 3'-end AAT (ssDNA)
DNA: TTACAAT
**Q.** Does B2 bind (RNase T E92G [2])?
**A.** Result: binds

B3: ssDNA 3'-end AAA (ssDNA)
DNA: TTATAAA
**Q.** Does B3 bind (RNase T [3])?
**A.** Result: binds

B4: ssDNA 3'-end ACC (ssDNA)
DNA: TTACACC
**Q.** Does B4 bind (RNase T [1])?
**A.** Result: binds

B5: stem-loop DNA, 2-nt 3'-overhang (structured_DNA)
DNA: GGCCCTCTTTAGGGCCTT
**Q.** Does B5 bind (RNase T E92G [4])?
**A.** Result: binds

B6: RNase T E92G mutant (E. coli) (enzyme, UniProt P30014 1-215, looked up)
chain: T1 sequence with E92G
**Q.** Does B6 bind (crystal structure)?
**A.** Result: binds

B7: RNase T (wild-type, E. coli) (enzyme, UniProt P30014 1-215, looked up)
chain: T1 sequence
**Q.** Does B7 bind (crystal structure)?
**A.** Result: binds

B8: ssDNA 3'-end TTA (ssDNA)
DNA: GCTTA
**Q.** Does B8 bind (RNase T E92G [2])?
**A.** Result: binds
